In patent US20110262447A1:

Target: wild-type p53 core domain (human) (UniProt P04637)
Test: ELISA, plates coated with recombinant core domain

Sequence of wild-type p53 core domain (human) (P04637 94-312): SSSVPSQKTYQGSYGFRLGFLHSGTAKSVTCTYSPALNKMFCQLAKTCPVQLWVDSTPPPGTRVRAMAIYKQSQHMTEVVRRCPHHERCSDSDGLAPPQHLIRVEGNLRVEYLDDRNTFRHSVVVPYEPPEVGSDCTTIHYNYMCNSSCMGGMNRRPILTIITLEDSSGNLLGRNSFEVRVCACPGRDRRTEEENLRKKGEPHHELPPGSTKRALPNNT

mAb 1620 (antibody)
O.D.: 1.2 O.D.
